In patent US20110287936A1, “GENE SWITCH COMPOSITIONS AND METHODS OF USE” (priority 2010, published 2011):
Changes are numbered by the printed parent chain.

B1: MMV:tetOp: Mirabilis mosaic virus promoter with three tet operators, SEQ ID NO:857 (nucleic acid)
DNA: TTCGTCCACAGACATCAACATCTTATCGTCCTTTGAAGATAAGATAATAATGTTGAAGATAAGAGTGGGAGCCACCACTAAAACATTGCTTTGTCAAAAGCTAAAAAAGATGATGCCCGACAGCCACTTGTGTGAAGCATGAGAAGCCGGTCCCTCCACTAAGAAAATTAGTGAAGCATCTTCCAGTGGTCCCTCCACTCACAGCTCAATCAGTGAGCAACAGGACGAAGGAAATGACGTAAGCCATGACGTCTAATCCCACACTCTATCAGTGATAGAGTTTATATAAGACTCTATCAGTGATAGAGTGAACTCTATCAGTGATAGAGTGAGATCAATCGAAATCAAAATCGGAATCGAAATCAAAATCGGAATCGAAATCTCTCATCTAAGAGCTCAAAAAAAAAAAAAACC
modifications: MMV promoter engineered with tet operators
B2: L7-3E03-D1: ethametsulfuron repressor (EsR), SEQ ID NO:411 (protein)
chain: MARLDKSKVINSALELLNEVGIEGLTTRKLAQKLGVEQPTLYWHVKNKRALLDAMAIEMLDRHATHYCPLEGESWQDFLRNNAKSMRCALLSHRDGAKVCLGTGFTEQQYETAENSLAFLCQQGFSLEHAMYAMQAAGIYTLGCVLLDQELQVAKEERETPTTDSMPPLVRQALELKDHQGAEPAFLFGLELIICGLEKQLKCESGS
modifications: Sulfonylurea responsive repressor L7-3E3-D1
B3: L7-1C03-A5: ethametsulfuron repressor (EsR), SEQ ID NO:408 (protein)
chain: B2 chain with Y67V, S85I, M131L, Y140F, K177N
modifications: Sulfonylurea responsive repressor L7-1C3-A5
B4: L7-1G06-B2: ethametsulfuron repressor (EsR), SEQ ID NO:410 (protein)
chain: B2 chain with L117M, H129N, M131L, A137V
modifications: Sulfonylurea responsive repressor L7-1G6-B2
B5: L7-1F08-A11: ethametsulfuron repressor protein, SEQ ID NO:409 (protein)
chain: B2 chain with H129N, M131L, A137V
modifications: Sulfonylurea responsive repressor L7-1F8-A11
B6: 35S:tetOp: 35SCaMV promoter with tet operators, SEQ ID NO:862, control (nucleic acid)
DNA: GAAAATCTTCGTCAACATGGTGGAGCACGACACGCTTGTCTACTCCAAAAATATCAAAGATACAGTCTCAGAAGACCAAAGGGCAATTGAGACTTTTCAACAAAGGGTAATATCCGGAAACCTCCTCGGATTCCATTGCCCAGCTATCTGTCACTTTATTGTGAAGATAGTGGAAAAGGAAGGTGGCTCCTACAAATGCCATCATTGCGATAAAGGAAAGGCCATCGTTGAAGATGCCTCTGCCGACAGTGGTCCCAAAGATGGACCCCCACCCACGAGGAGCATCGTGGAAAAAGAAGACGTTCCAACCACGTCTTCAAAGCAAGTGGATTGATGTGATATCTCCACTGACGTAAGGGATGACGCACAATCCCACTAGACTCTATCAGTGATAGAGTGTATATAAGACTCTATCAGTGATAGAGTGAACTCTATCAGTGATAGAGTTGTACTTATTTTTACAACAATTACCAACAACAACAAACAACAAACAACATTACAATTACTATTTACAATTACAGTCGACGGATCAAGTGCAAAGGTCCGCCTTGTTTCTCCTCTGTCTCTTGATCTGACTAATCTTGGTTTATGATTCGTTGAGTAATTTTGGGGAAAGCTTCGTCCACAGTTTTTTTTTCGATGAACAGTGCCGCAGTGGCGCTGATCTTGTATGCTATCCTGCAATCGTGGTGAACTTATTTCTTTTATATCCTTCACTCCCATGAAAAGGCTAGTAATCTTTCTCGATGTAACATCGTCCAGCACTGCTATTACCGTGTGGTCCATCCGACAGTCTGGCTGAACACATCATACGATATTGAGCAAAGATCGATCTATCTTCCCTGTTCTTTAATGAAAGACGTCATTTTCATCAGTATGATCTAAGAATGTTGCAACTTGCAAGGAGGCGTTTCTTTCTTTGAATTTAACTAACTCGTTGAGTGGCCCTGTTTCTCGGACGTAAGGCCTTTGCTGCTCCACACATGTCCATTCGAATTTTACCGTGTTTAGCAAGGGCGAAAAGTTTGCATCTTGATGATTTAGCTTGACTATGCGATTGCTTTCCTGGACCCGTGCAGCTGCGGACGGATCC
modifications: 35SCaMV promoter engineered with tet operators
B7: dMMV:tetOp: double enhancer MMV promoter with three tet operators, SEQ ID NO:858 (nucleic acid)
DNA: AAACCAATTCGTCAACTTCGTCCACAGACATCAACATCTTATCGTCCTTTGAAGATAAGATAATAATGTTGAAGATAAGAGTGGGAGCCCCCACTAAAACATTGCTTTGTCAAAAGCTAAAAAAGATGATGCCCGACAGCCACTTGTGTGAAGCATGAGAAGCCGGTCCCTCCACTAAGAAAATTAGTGAAGCATCTTCCAGTGGTCCCTCCACTCACAGCTCAATCAGTGAGCAACAGGACGAAGGAAATGACGTAAGCCATGACGTCTAATCCCAACTTCGTCCACAGACATCAACATCTTATCGTCCTTTGAAGATAAGATAATAATGTTGAAGATAAGAGTGGGAGCCACCACTAAAACATTGCTTTGTCAAAAGCTAAAAAAGATGATGCCCGACAGCCACTTGTGTGAAGCATGAGAAGCCGGTCCCTCCACTAAGAAAATTAGTGAAGCATCTTCCAGTGGTCCCTCCACTCACAGCTCAATCAGTGAGCAACAGGACGAAGGAAATGACGTAAGCCATGACGTCTAATCCCACACTCTATCAGTGATAGAGTTTATATAAGACTCTATCAGTGATAGAGTGAACTCTATCAGTGATAGAGTGAGATCAATCGAAATCAAAATCGGAATCGAAATCAAAATCGGAATCGAAATCTCTCATCTAAGAGCTCAAAAAAAAAAAAAACC
modifications: dMMV promoter engineered with tet operators

How the values were obtained:
RLuc reporter = assay: Agrobacterium transient luciferase assay of promoters with and without tet operators; type: in vivo, Nicotiana benthamiana; details: relative light units
Method: The activity of unmodified and designed MMV, dMMV, and EF1A2 promoters were evaluated using the characterized 35SCaMV (SEQ ID NO:861) and 35SCaMV::tetOP (SEQ ID NO:862) promoters as controls. Promoter activity was analyzed via Agrobacterium-mediated transient expression analysis in Nicotiana benthamiana leaves. N. benthamiana leaves were infected with luciferase reporter constructs controlled by either the modified or unmodified promoters. Test constructs were identical except for the promoter sequence (Pro) being tested. Test constructs comprised the following operably linked components: • RB-Pro-RLuc-UBQ3-EF1A-NptII-EF1A3′-LB
Relative light units were quantified for modified and unmodified promoters (FIG. 3), and promoter activity for the modified version determined as the percent of unmodified promoter activity (ProOp/Pro). […] In this assay, 35S:tetOp had about 25% of the activity as 35S promoter, EF1A2:tetOp had about 30% of the activity of EF1A2 promoter, MMV:tetOp had about 60% of the activity of MMV promoter, and dMMV:tetOp had about 50% of the activity of dMMV promoter.

[1] = test system: 35S::tetO-Renilla Luciferase reporter; assay: Nicotiana benthamiana leaf infiltration assay, repression and derepression; type: in vivo; details: inducer concentration as low as 0.02 ppm Es
operator = assay: Biacore SPR operator binding characterization of repressors
From the text: Select SU repressors were further characterized for operator and ligand binding, affinity and dissociation kinetics using Biacore™ SPR technology (Biacore, GE Healthcare, USA). The technology is based on surface plasmon resonance (SPR), an optical phenomenon that enables detection of unlabeled interactants in real time. The SPR-based biosensors can be used in determination of active concentration, screening and characterization in terms of both affinity and kinetics.
The kinetics of an interaction, i.e., the rates of complex formation (ka) and dissociation (kd), can be determined from the information in a sensorgram. If binding occurs as sample passes over a prepared sensor surface, the response in the sensorgram increases. If equilibrium is reached, a constant signal is seen. Replacing the sample with buffer causes the bound molecules to dissociate and the response decreases. Biacore evaluation software generates the values of ka and kd by fitting the data to interaction models.
The affinity of an interaction is determined from the level of binding at equilibrium (seen as a constant signal) as a function of sample concentration. Affinity can also be determined from kinetic measurements. For a simple 1:1 interaction, the equilibrium constant KD is the ratio of the kinetic rate constants, kd/ka.
A. Operator Binding Characterization of Repressors

| Molecule | promoter activity as percent of unmodified promoter activity (ProOp/Pro) (RLuc reporter) | induction of repressor [1] | ka (operator) |
| --- | --- | --- | --- |
| B1 | about 60% |  |  |
| B2 |  | significant but incomplete induction | 55000 M⁻¹ s⁻¹ |
| B3 |  |  | 47000 M⁻¹ s⁻¹ |
| B4 |  |  | 46000 M⁻¹ s⁻¹ |
| B5 |  |  | 71000 M⁻¹ s⁻¹ |
| B6 | about 25% |  |  |
| B7 | about 50% |  |  |
